The chains are these.
B1: chimeric Ab 10-P12-A (antibody, V domains shown)
VH: EIQLQQSGAELVKPGTSVKISCKASGYSFTGYNMNWVKQSHGKSLEWIGNINPYYSNTNYNQRFKGKATLTVDKSSSTAYMQLNSLTSEDSAVYYCARHVRGNSFDYWGQGTTLTVSS
VL: DIVMTQSPSSLTVTAGERVTVGCKSRQSLFNSENQKNYLSWYQQKPGQPPKLLLYWTSTRESGVPERFTGSGSGTDFTLTISSVQAEDLAVYYCQNNYIYPFTFGSGTKLEIK
B2: chimeric Ab 1-B13-A (antibody, V domains shown)
VH: QVQLQQSGAELARPGASVKLSCKASGYTFTVWSMSWVKQRTGQGLQWIGEIYPKSGNTHYNEKFKGKATLTADKSSSTVYMQLSSLTSEDSAVYFCARAYYGNSFAYWGQGTLVTVPA
VL: DIVMTQSPSPLTVTAGEKATMSCKSSQSLLNSGNQRNYLTWYQQKPGQPPKLLIYWASTRESGVPDRFTGSGSGTDFSLTISSVQAEDLAVYYCQNDFIYPFTFGSGTKLEIK
B3: chimeric Ab 4-N1-A (antibody, V domains shown)
VH: EVQLVNSGGGLVKPGGSRKLSCAASGFTFSDYGMHWVRQAPEKGLEWVAYISSGSSTIYYADTMKGRFTISRDNAKNTLFLQMTSLRSEDTAMYYCARFVRGNSMDYWGQGTSVTVSS
VL: DIVMTQSPSSLTVTAGEKVTMSCKSSQSLLNSGNQKNYLTWYQQKPGQPPKLLIYWASTRESGVPDRFTGSGSGTDFTLTISSVQAEDLTVYYCQNAYSYPLTFGAGTKLELK
B4: chimeric Ab 2-D22-A (antibody, V domains shown)
VH: EVQLVESGGGLVKPGGSRKLSCAASGFTFSDYGMHWVRQAPEKGLEWIAYISSGSSSIYYADTVKGRFTMSRDNAKKTLFLQTTSLRSEDTAMYYCARIARGNAMDYWGQGTSVTVTS
VL: B3 VL with K36R, T40A, T90A, A97D
B5: chimeric Ab 6-M11-A (antibody, V domains shown)
VH: B3 VH with N6E, L11S, S56N, I58F, A61T, M64V, S85G, V100T, S104A, M105L
VL: B3 VL with I54L
B6: chimeric Ab 9-N14-A (antibody, V domains shown)
VH: B4 VH with H35Y, I48L, S56N, S57N, M70I, K77N, T83M, T115I, T117S
VL: B3 VL with T90A, A97D, S99I, E111G
B7: chimeric Ab 10-J10-B (antibody, V domains shown)
VH: B2 VH with V31S, M34I, Q46E, K54R, G56D, T58I, P117S
VL: B2 VL with P10S, A19V, S22T, S28I, R36K, V91I, F98Y, I99Y
notes: also called 10-110-B; 10-10-B
B8: chimeric Ab 1-H16-A (antibody, V domains shown)
VH: B3 VH with N6E, H35Y, Y50F, Y60C, M64V, F99I, V100A, S104A
VL: B3 VL with K18R, Q35L, S83T, T90A, A97D, S99F
B9: chimeric Ab 9-M7-A (antibody, V domains shown)
VH: EVQLVESGGALVKPGGSLKLSCAASGFTFSNYAMSWIRQTPEKRLEWVATIIIGGTYTYYPDSVKGRFTISRDNAKNTLYLQMSSLRSEDTALYYCARQVYGNSFAYWGQGTLVTVSA
VL: B2 VL with P10S, A19V, R36K, S78T, D97N, F98Y
B10: chimeric Ab 9-A13-B (antibody, V domains shown)
VH: B3 VH with N6E, T28S, Y50H, V100A, S104T
VL: B3 VL with A97G
B11: chimeric Ab 7-G17-A (antibody, V domains shown)
VH: B4 VH with A24V, H35Y, I48V, S57T, K77N, T83M, T117S
VL: B3 VL with A15P, L30F, K36R, T40A, T90A, A97D, S99F
B12: chimeric Ab 10-K12-A (antibody, V domains shown)
VH: B4 VH with H35F, I48V, A49G, S57N, M70I, K77N, T83M, T117S
VL: B3 VL with T90A, V91I, A97D, S99F
B13: chimeric Ab 5-J22-A (antibody, V domains shown)
VH: B3 VH with N6E, Y50H, S56N, T57I, Y59H, M64L, V100A, S104T
VL: B3 VL with Y100F
notes: also called 5-22-A
B14: chimeric Ab 1-M5-A (antibody, V domains shown)
VH: B9 VH with P14S, K19R, Y32N, L93F, T115S
VL: B3 VL with T90A, A97N, S99F, L102F, A106S, L112I
B15: chimeric Ab 6-C5-A (antibody, V domains shown)
VH: B3 VH with N6E, A97T, V100A, S104T
VL: B3 VL with K36R, Q44R, V91F, A97G
B16: chimeric Ab 9-B11-A (antibody, V domains shown)
VH: B3 VH with N6E, T57P, M64V, V100A, S104A
VL: B3 VL with E61D, T90A, A97N, S99Y, K109N
B17: chimeric Ab 7-B15-A (antibody, V domains shown)
VH: B3 VH with N6E, V48I, Y50H, S104A, M105L
VL: B3 VL with S22N, A97G
B18: chimeric Ab 7-A21-A (antibody, V domains shown)
VH: B4 VH with H35Y, I48L, S56N, S57T, M70I, K77N, T83M, T117S
VL: B3 VL with T90A, A97D, S99I, E111G
B19: chimeric Ab 7-E20-A (antibody, V domains shown)
VH: B3 VH with N6E, Y59H, A61V, V100A, S104T, M105L
VL: B3 VL with L30F, S32T, A97G
B20: chimeric Ab 9-C6-A (antibody, V domains shown)
VH: B3 VH with N6E
VL: B3 VL with M21L, G47R, S83N
B21: hybridoma clone 1-H16-A (antibody, V domains shown)
VH: B3 VH with N6E, H35Y, Y50F, Y60C, M64V, F99I, V100A, S104A
VL: B3 VL with K18R, Q35L, S83T, T90A, A97D, S99F

Where a chain is given by its changes, count along the chain named.

T2 sequence (P56856 whole entry): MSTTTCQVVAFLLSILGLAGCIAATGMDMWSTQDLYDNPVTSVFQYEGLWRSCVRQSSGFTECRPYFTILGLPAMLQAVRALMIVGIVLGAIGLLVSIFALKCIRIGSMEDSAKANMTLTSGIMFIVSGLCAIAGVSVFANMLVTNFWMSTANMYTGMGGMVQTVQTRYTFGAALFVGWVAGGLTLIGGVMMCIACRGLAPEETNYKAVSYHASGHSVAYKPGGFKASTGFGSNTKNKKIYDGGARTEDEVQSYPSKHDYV

In the first assay the target is T1, claudin 18.2 (CLDN18.2) (human).
T1 construct: also called Claudin 18 isotype 2; HEK293-CLDN18.2
As to the kind of experiment: FACS, HEK293-CLDN18.2 cells.
Protocol: The interaction of 20 purified chimeric antibodies with CLDN18.2 was assessed by in-cell ELISAs and FACS using HEK293-CLDN18.2 cells. […] The FACS assays were performed as follows: Serial dilutions for each antibody clone shown in Tables 7 and 8 were prepared and stained with HEK293-CLDN18.2 cells on ice for 30 min, with final antibody concentrations of 10 g/ml, 3 g/ml, 1 g/ml, 0.3 μg/ml, 0.1 μg/ml, 0.03 μg/ml, 0.01 μg/ml, and 0 μg/ml. […] Cells were washed, and analyzed by FACS.
For B1, the EC50 was determined as 0.018 µg/mL.
Same read-out and setting: in the case of B2 it was 0.036 µg/mL; in that of B3, 0.029 µg/mL; in that of B4, 0.051 µg/mL.
Same read-out and setting: in the case of B5 it was 0.026 µg/mL.
For B6, the half-maximal effective concentration (EC50) was found to be 0.075 µg/mL.
On the same count and under the same terms, in the case of B7 it was 0.141 µg/mL; in that of B8, 0.101 µg/mL.
On to B9, for which the 50% effective concentration (EC50) turned out to be 0.095 µg/mL.
The same measure, in the same setting: in the case of B10 it was 0.068 µg/mL; in that of B11, 0.033 µg/mL.
Same read-out and setting: in the case of B12 it was 0.075 µg/mL; in that of B13, 0.023 µg/mL; in that of B14, 0.044 µg/mL.
Molecule B15 had an EC50 of 0.044 µg/mL.
Still for that read-out and setting: in the case of B16 it was 0.045 µg/mL; in that of B17, 0.032 µg/mL; in that of B18, 0.134 µg/mL.
On the same count and under the same terms, in the case of B19 it was 0.05 µg/mL.
With B20, the EC50 was found to be 0.032 µg/mL.

The next assay addresses T2, claudin 18.1 (CLDN18.1) (human, UniProt P56856 1-261).
T2 construct: also called HEK293-CLDN18.1
As to the kind of experiment: in-cell ELISA, HEK293-CLDN18.1 cells.
Protocol: (§1) In-cell ELISAs were performed as follows: 5×10³ HEK293-CLDN18.2 cells were seeded per well in a poly-L-lysine-coated 96-well plate. The plates were then incubated at 37° C. with 5% CO₂ for 2 days. Following incubation, culture media was removed from each well, and the HEK293-CLDN18.2 cells were blocked with 200 μl blocking buffer (3% BSA/PBS (pH 7.4)) per well for 1 hour at room temperature. Each hybridoma supernatant was incubated with cells at room temperature for 1 hour. Cells were gently washed 3 times with 200 μl PBS (pH 7.4) containing 1 mM Ca²⁺ and 0.5 mM Mg²⁺. Next, cells were incubated with 100 μl of HRP-conjugated goat anti-human IgG (H+L) antibody for 1 hour at room temperature. Following the incubation, the cells were washed three times with 200 μl PBS (pH 7.4) containing 1 mM Ca²⁺ and 0.5 mM Mg²⁺. 100 μl of 1-Step™ Ultra TMB-ELISA Substrate was added to each well, and the reactions were stopped by addition of 50 μl of stop solution. OD₄₅₀ was measured using CLARIOStar microplate reader. The in-cell ELISAs were repeated for each clone using HEK293-CLDN18.1 cells.
Consider B6, for which the binding result was “no binding (tested: 1 µg/ml)”.
Consider B7, for which the binding result was “no binding (tested: 1 µg/ml)”.
Turning to B9, the binding result was “no binding (tested: 1 µg/ml)”.
On the same count and under the same terms, the entry for B14 is “no binding (tested: 1 µg/ml)”.
Regarding B15, the binding result is listed as “no binding (tested: 1 µg/ml)”.
On the same count and under the same terms, the entry for B16 is “no binding (tested: 1 µg/ml)”.

Another assay concerns the target T1, claudin 18.2 (CLDN18.2). The assay is described as follows: in-cell ELISA, HEK293-CLDN18.2 cells.
Protocol: as §1
The in-cell ELISAs were performed as described above. […] Cells were washed, and analyzed by FACS.
B1 displayed an EC50 of 0.106 µg/mL.
Molecule B2 yielded a half-maximal effective concentration (EC50) of 0.059 µg/mL.
For the molecule B3, the EC50 came to 0.059 µg/mL.
The same measure, in the same setting: the figure for B4 is 0.065 µg/mL.
Molecule B5 had a 50% effective concentration (EC50) of 0.098 µg/mL.
B6 gave an EC50 of 0.218 µg/mL.
In turn, B7 came in with a half-maximal effective concentration (EC50) of 0.062 µg/mL.
On the same count and under the same terms, in the case of B8 it was 0.08 µg/mL.
The molecule B9 had an EC50 of 0.154 µg/mL.
Same read-out and setting: the figure for B10 is 0.15 µg/mL.
Same read-out and setting: the figure for B11 is 0.098 µg/mL; for B12 it is 0.05 µg/mL; for B13 it is 0.065 µg/mL.
On to B14, for which the EC50 turned out to be 0.042 µg/mL.
In turn, B15 displayed an EC50 of 0.058 µg/mL.
On to B16, for which the response was half-maximal at 0.069 µg/mL (EC50).
Same read-out and setting: the figure for B17 is 0.066 µg/mL; for B18 it is 0.23 µg/mL.
For the molecule B19, it took 0.198 µg/mL to reach a half-maximal effect (EC50).
On the same count and under the same terms, the figure for B20 is 0.491 µg/mL.

The target of a further assay is T2, claudin 18.1 (CLDN18.1). As to the kind of experiment: FACS, hybridoma supernatant on HEK293-CLDN18.1.
Description: (§2) Ten days after fusion, hybridoma supernatants were screened by FACS against HEK293-CLDN18.2, HEK293-CLDN18.1 and HEK293.
The molecule B21 had an MFI of 28300.

A further assay deals with T1, claudin 18.2 (CLDN18.2). As to the kind of experiment: FACS, hybridoma supernatant on HEK293-CLDN18.2.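 Further: flow cytometry of hybridoma supernatants taken 10 days after fusion, applied to HEK293 cells stably expressing CLDN18.2, with MFI standing for mean fluorescence intensity.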
Description: as §2
Regarding B21, the MFI was 121000.

In another assay the target is T2, claudin 18.1 (CLDN18.1). The assay is described as follows: in-cell ELISA, hybridoma supernatant on HEK293-CLDN18.1 cells.
Protocol: as §1
Take B21: the “OD450/µg IgG” value turned out to be 1.05 OD450/µg IgG.

A further assay deals with T1, claudin 18.2 (CLDN18.2). As to the kind of experiment: in-cell ELISA, hybridoma supernatant on HEK293-CLDN18.2 cells.
Protocol: as §1
Turning to B21, the “OD450/µg IgG” value turned out to be 14.2 OD450/µg IgG.

For the origin of these results see patent US20210009686A1 (BEIJING XUANYI PHARMASCIENCES, published 2021).
